Laboratory results published in US20250179139A1 (CENTRO DE INMUNOLOG A MOLECULAR, published 2025).

B1: recombinant extracellular domain of the human IL-2 receptor beta subunit (receptor, UniProt P14784 27-240, looked up)
chain: AVNGTSQFTCFYNSRANISCVWSQDGALQDTSCQVHAWPDRRRWNQTCELLPVSQASWACNLILGAPDSQKLTTVDIVTLRVLCREGVRWRVMAIQDFKPFENLRLMAPISLQVVHVETHRCNISWEISQASHYFERHLEFEARTLSPGHTWEEAPLLTLKQKQEWICLETLTPDTQYEFQVRVKPLQGEFTTWSPWSQPLAFRTKPAALGKDT
notes: extracellular domain; also called beta chain of the IL-2 receptor; beta subunit of the receptor

What was measured:
[1] = target: B1; assay: phage ELISA; ratio of the signal on the beta subunit extracellular domain to the signal on anti-c-myc antibody 9E10 (display level); anti-M13 antibody-HRP
Method: The binding capacity of the new variants to the extracellular domain of the IL-2 receptor beta subunit was assessed by ELISA. For this purpose, plates were coated with the recombinant extracellular domain of the IL-2 receptor beta subunit. The bound phages were detected with an anti-M13 antibody conjugated to horseradish peroxidase. Simultaneously, their binding to a plate coated with the monoclonal antibody 9E10 directed against the c-myc peptide that is fused to the proteins presented on the phages was determined to establish the display levels of each. The ratio between the signals obtained with both coating molecules (relative reactivity) is plotted as a measure of the intrinsic binding capacity of each variant to the beta-subunit.

[2] = target: T1, IL-2/Fc (K35E) fusion protein (human, UniProt P60568 21-153); assay: BIAcore (SPR); format not stated
T1 construct: mature; IL-2 fused to the N-terminal end of human IgG1 Fc; also called fusion protein derived from the original IL-2; human IL-2/Fc fusion protein
T1 sequence (P60568 other isoform, or with tags, fused parts or gaps K35E K35E limits assumed): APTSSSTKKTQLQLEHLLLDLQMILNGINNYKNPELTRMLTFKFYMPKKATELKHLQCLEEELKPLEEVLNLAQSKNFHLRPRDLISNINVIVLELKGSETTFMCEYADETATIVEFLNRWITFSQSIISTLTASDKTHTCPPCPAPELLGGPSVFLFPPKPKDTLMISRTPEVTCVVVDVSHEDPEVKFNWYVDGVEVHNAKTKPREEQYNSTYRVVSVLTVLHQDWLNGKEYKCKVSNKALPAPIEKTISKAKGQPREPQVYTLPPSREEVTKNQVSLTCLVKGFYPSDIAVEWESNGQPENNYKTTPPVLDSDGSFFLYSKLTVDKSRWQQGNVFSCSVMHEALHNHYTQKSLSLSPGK

[3] = target: T2, H9/Fc (K35E) fusion protein (human, UniProt P60568 21-153); assay: BIAcore (SPR); format not stated
T2 construct: mature; Same format as the other Fc fusions; also called fusion protein based on the H9 superkine
T2 sequence (P60568 other isoform, or with tags, fused parts or gaps K35E K35E limits assumed): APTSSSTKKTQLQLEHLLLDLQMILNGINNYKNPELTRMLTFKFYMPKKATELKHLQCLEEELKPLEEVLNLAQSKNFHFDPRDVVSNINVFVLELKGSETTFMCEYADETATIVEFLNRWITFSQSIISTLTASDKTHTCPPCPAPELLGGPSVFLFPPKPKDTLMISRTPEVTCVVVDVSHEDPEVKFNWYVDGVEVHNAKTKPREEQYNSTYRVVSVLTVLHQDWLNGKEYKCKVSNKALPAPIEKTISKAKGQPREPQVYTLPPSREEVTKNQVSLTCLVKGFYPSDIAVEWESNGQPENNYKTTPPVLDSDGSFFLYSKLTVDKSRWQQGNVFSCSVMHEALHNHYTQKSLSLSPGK

| Binder | binding result [1] | Kd [2] | koff [2] | kon [2] | Kd [3] | koff [3] | kon [3] |
| --- | --- | --- | --- | --- | --- | --- | --- |
| IL-2 variant 1A displayed on phage (S2 library) (other, not shown: large carriers; small tags and cut ends, Substitutions are derived from the segment name printed for the fusion protein built from this clone) TSSSTKKTQLQLEHLLLDLQMILNGINNYKNPKLTRMLTFKFYMPKKATELKHLQCLEEELKPLEEVLNLAQSKNFHFDPHDVVENINVLLLELKGSETTFMCEYADETATIVEFLNRWITFSQSIISTLT | binds |  |  |  |  |  |  |
| B1 |  | 106 nM | 0.00326 s⁻¹ | 30800 M⁻¹ s⁻¹ | 4.09 nM | 0.000395 s⁻¹ | 97200 M⁻¹ s⁻¹ |
